This is an account of results in patent publication US20090155255A1 (published 2009).

In experiment [1] the target is T1, soluble CD23 antigen (soluble and monomeric form) (UniProt P06734 150-321).
T1 chain: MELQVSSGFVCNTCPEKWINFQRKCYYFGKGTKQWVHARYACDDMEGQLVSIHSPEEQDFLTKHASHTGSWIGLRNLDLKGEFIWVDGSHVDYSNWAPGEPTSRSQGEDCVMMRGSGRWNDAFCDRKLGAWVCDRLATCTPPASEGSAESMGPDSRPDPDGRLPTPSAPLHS
The experiment in a line: DELFIA.

For experiment [2], the target named is T1, soluble CD23 antigen (soluble and …). The experiment can be described thus: Biacore.
Experiment [3] has the same target. The experiment can be described thus: FRET competition.
In experiment [4] the target is IEH-251. The experiment can be described thus: DELFIA.
The target in experiment [5] is IEH-243. The experiment can be described thus: DELFIA.
For experiment [6], the target named is IEH-241. The experiment in a line: DELFIA.
Experiment [7] has as its target IEH-239. The experiment can be described thus: DELFIA.
For experiment [8], the target named is IEH-245. The experiment can be described thus: DELFIA.
The target of experiment [9] is IEH-248. The experiment can be described thus: DELFIA.
In experiment [10] the target is IEH-250. The experiment can be described thus: DELFIA.
For experiment [11], the target named is IEH-251. The experiment in a line: Biacore.
The target of experiment [12] is IEH-243. The experiment can be described thus: Biacore.
Experiment [13] addresses IEH-241. The experiment in a line: Biacore.
The target in experiment [14] is IEH-245. The experiment can be described thus: Biacore.
The target of experiment [15] is IEH-248. The experiment in a line: Biacore.
The target of experiment [16] is IEH-250. The experiment can be described thus: Biacore.

Positions count from the first letter of the chain named.

B1: stabilized p5E8 pIEH252 scFv (scFv)
scFv: DIQMTQSPSSLSASVGDRVTITCRASQDIRYYLNWYQQKPGKAPKLLIYSASSLQSGVPSRFSGSGSGTEFTLTVSSLQPEDAATYYCLQVYSTPRTFGQGTKVEIKGGGGSGGGGSGGGGSEVQLVQSGGGLAKPGGSLRLSCAASGFRFTFSNYYMDWVRQAPGQGLEWVGRISSSGDPTWYADSVKGRFTISRDNAKNTLFLQMNSLRAEDTAVYYCASLTTGSDSWGQGVLVTVSS
Take B1: the values for the Kd in [1] and in [2] were 1.2 nM and 0.8 nM, respectively. Further, in [3], the IC50 came out at 0.052 µg/mL.

B2: stabilized p5E8 pIEH246 scFv (scFv)
scFv: B1 scFv with S154N, P181H, D197E
In the case of B2, the Kd in [1] came to 1 nM; in [2] it was 0.9 nM. The IC50 in [3] is 0.061 µg/mL.

B3: CD23 (receptor)
chain: T1 chain
For B3, the Kd was determined as 1.5 nM in experiment [4]; 1.2 nM in experiment [5]; 1.2 nM in [6]; 3 nM in experiment [7]; 1 nM in [8]; 2.4 nM in experiment [9]. Further, the dissociation constant (Kd) came out at 2.6 nM in experiment [10]; 3.2 nM in experiment [11]; 2.8 nM in [12]; 4.6 nM in [13]; 1.1 nM in [14]; 1.3 nM in experiment [15]. This molecule had a Kd in experiment [16] of 4.3 nM.
